Source: article PMC8281026, “Peptide Based Inhibitors of Protein Binding to the Mitogen-Activated Protein Kinase Docking Groove” (Frontiers in Molecular Biosciences, 2021)
Primed or numbered codes have the meaning given here. The star is where a group is joined. Dabcyl′ = 4-((4-(dimethylamino)phenyl)azo)benzoyl, CN(C)c1ccc(/N=N/c2ccc(C(=O)*)cc2)cc1

Assays:
p38α = molecular target: T1, p38α (UniProt Q16539 1-360); test: fluorescence polarisation; competitive: complex of the MAPK with 50 nM Cf-RHDF at 60-80% complex formation titrated with increasing unlabeled peptide; 20 mM Tris pH 8.0, 100 mM NaCl, 0.05% Brij35, 2 mM TCEP; 384-well black plates; triplicates; constants are called Kd in Table 1 and Ki in the methods; conditions: both partners purified
T1 construct: The in vitro activity assay used active, phosphorylated pp-p38α (1 nM); source: recombinantly expressed in Escherichia coli, purified according to Garai et al
T1 sequence (Q16539 whole entry): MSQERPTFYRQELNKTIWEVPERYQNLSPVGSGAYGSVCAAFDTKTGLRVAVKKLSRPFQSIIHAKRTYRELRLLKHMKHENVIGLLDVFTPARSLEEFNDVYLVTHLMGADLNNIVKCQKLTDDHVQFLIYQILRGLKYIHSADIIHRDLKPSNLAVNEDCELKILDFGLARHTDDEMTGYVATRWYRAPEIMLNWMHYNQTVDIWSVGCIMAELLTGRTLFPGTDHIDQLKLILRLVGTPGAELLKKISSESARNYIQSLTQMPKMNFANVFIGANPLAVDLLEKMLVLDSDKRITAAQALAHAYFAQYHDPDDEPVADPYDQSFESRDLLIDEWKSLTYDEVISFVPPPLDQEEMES

ERK2 = molecular target: T2, ERK2 (UniProt P28482 1-360); test: as above; conditions: both partners purified
T2 construct: The in vitro activity assay used active, phosphorylated pp-ERK2 (1 nM); also called extracellular signal-regulated kinase 2; MAPK; source: recombinantly expressed in Escherichia coli, purified according to Garai et al
T2 sequence (P28482 whole entry): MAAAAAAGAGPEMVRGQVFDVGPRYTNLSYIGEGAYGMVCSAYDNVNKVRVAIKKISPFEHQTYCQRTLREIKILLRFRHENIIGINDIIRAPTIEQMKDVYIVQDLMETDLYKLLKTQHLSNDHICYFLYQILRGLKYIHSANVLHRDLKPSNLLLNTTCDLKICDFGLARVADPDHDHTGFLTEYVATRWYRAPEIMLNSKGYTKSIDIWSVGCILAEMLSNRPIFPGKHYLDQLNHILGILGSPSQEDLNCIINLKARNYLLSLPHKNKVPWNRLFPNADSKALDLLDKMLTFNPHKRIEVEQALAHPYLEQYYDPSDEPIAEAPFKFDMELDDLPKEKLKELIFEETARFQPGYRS

| Kd (p38α) [µM] | Kd (ERK2) [µM] | Binder |
| --- | --- | --- |
| 10 | 19.5 | H-RRPPWLRLDI-NH2 (source: synthetic peptide (Fmoc/tBu solid phase on Rink-amide MBHA resin, RP-HPLC purified)) [H-RRPPWLRLDI-NH2 (peptide 5)] |
| 1.1 | 1.8 | H-SLQRKKPPWLKLDIPSC-NH2 (C-terminal cysteine that follows the 16 residues of the motif in the printed peptide; not part of the motif as printed in the text; The added Cys probably serves for conjugation (cysteine containing peptides were joined to chloroacetylated peptides); also called original peptide; source: synthetic peptide (Fmoc/tBu solid phase on Rink-amide MBHA resin, RP-HPLC purified)) [H-SLQRKKPPWLKLDIPSC-NH2 (peptide 1, RHDF1 linear binding motif)] |
|  | 15 | H-KKPPWLKLDI-NH2 (RHDF1 docking motif without the flanking regions SLQR (N-terminus) and PS (C-terminus); also called short peptide; truncated construct; source: synthetic peptide (Fmoc/tBu solid phase on Rink-amide MBHA resin, RP-HPLC purified)) [H-KKPPWLKLDI-NH2 (peptide 4)] |
| 1.4 | 1.3 | H-RRRPPWLRLDIRR-NH2 (peptide 6 with one more Arg at the N-terminus; source: synthetic peptide (Fmoc/tBu solid phase on Rink-amide MBHA resin, RP-HPLC purified)) [H-RRRPPWLRLDIRR-NH2 (peptide 8)] |
|  | 5.2 | H-RRPPWLRLDIRR-NH2 (peptide 5 extended at the C-terminus by two Arg; source: synthetic peptide (Fmoc/tBu solid phase on Rink-amide MBHA resin, RP-HPLC purified)) [H-RRPPWLRLDIRR-NH2 (peptide 6)] |
| 1 | 4.6 | {Dabcyl′}-RRRPPWLRLDIRRK-NH2 (SMILES CC[C@H](C)[C@H](NC(=O)[C@H](CC(=O)O)NC(=O)[C@H](CC(C)C)NC(=O)[C@H](CCCNC(=N)N)NC(=O)[C@H](CC(C)C)NC(=O)[C@H](Cc1c[nH]c2ccccc12)NC(=O)[C@@H]1CCCN1C(=O)[C@@H]1CCCN1C(=O)[C@H](CCCNC(=N)N)NC(=O)[C@H](CCCNC(=N)N)NC(=O)[C@H](CCCNC(=N)N)NC(=O)c1ccc(/N=N/c2ccc(N(C)C)cc2)cc1)C(=O)N[C@@H](CCCNC(=N)N)C(=O)N[C@@H](CCCNC(=N)N)C(=O)N[C@@H](CCCCN)C(N)=O, peptide 8 with a Lys at the C-terminus and a Dabcyl group on the N-terminus; also called Dabcyl-containing peptide (unlabelled); source: synthetic peptide (Fmoc/tBu solid phase on Rink-amide MBHA resin, RP-HPLC purified)) [Dabcyl-RRRPPWLRLDIRRK-NH2 (peptide 10)] |
